{"source": "patent US20160113911A1", "about": "“METHODS AND COMPOSITIONS FOR THE TREATMENT OF CANCER” (THE GENERAL HOSPITAL CORPORATION, priority 2013, published 2016)", "molecules": {"B1": {"name": "2A-V1003A: KDM4A mutation (protein)", "chain": "MASESETLNPSARIMTFYPTMEEFRNFSRYIAYIESQGAHRAGLAKVVPPKEWKPRASYDDIDDLVIPAPIQQLVTGQSGLFTQYNIQKKAMTVREFRKIANSDKYCTPRYSEFEELERKYWKNLTFNPPIYGADVNGTLYEKHVDEWNIGRLRTILDLVEKESGITIEGVNTPYLYFGMWKTSFAWHTEDMDLYSINYLHFGEPKSWYSVPPEHGKRLERLAKGFFPGSAQSCEAFLRHKMTLISPLMLKKYGIPFDKVTQEAGEFMITFPYGYHAGFNHGFNCAESTNFATRRWIEYGKQAVLCSCRKDMVKISMDVFVRKFQPERYKLWKAGKDNTVIDHTLPTPEAAEFLKESELPPRAGNEEECPEEDMEGVEDGEEGDLKTSLAKHRIGTKRHRVCLEIPQEVSQSELFPKEDLSSEQYEMTECPAALAPVRPTHSSVRQVEDGLTFPDYSDSTEVKFEELKNVKLEEEDEEEEQAAAALDLSVNPASVGGRLVFSGSKKKSSSSLGSGSSRDSISSDSETSEPLSCRAQGQTGVLTVHSYAKGDGRVTVGEPCTRKKGSAARSFSERELAEVADEYMFSLEENKKSKGRRQPLSKLPRHHPLVLQECVSDDETSEQLTPEEEAEETEAWAKPLSQLWQNRPPNFEAEKEFNETMAQQAPHCAVCMIFQTYHQVEFGGFNQNCGNASDLAPQKQRTKPLIPEMCFTSTGCSTDINLSTPYLEEDGTSILVSCKKCSVRVHASCYGVPPAKASEDWMCSRCSANALEEDCCLCSLRGGALQRANDDRWVHVSCAVAILEARFVNIAERSPVDVSKIPLPRFKLKCIFCKKRRKRTAGCCVQCSHGRCPTAFHVSCAQAAGVMMQPDDWPFVVFITCFRHKIPNLERAKGALQSITAGQKVISKHKNGRFYQCEVVRLTTETFYEVNFDDGSFSDNLYPEDIVSQDCLQFGPPAEGEVVQVRWTDGQVYGAKFVASHPIQMYQVEFEDGSQLVVKRDDAYTLDEELPKRVKSRLSVASDMRFNEIFTEKEVKQEKKRQRVINSRYREDYIEPALYRAIME"}, "B2": {"name": "2A-E1032K: KDM4A mutation (protein)", "chain": "B1 chain with A1003V, E1032K"}, "B3": {"name": "2A-S28N: KDM4A mutation (protein)", "chain": "B1 chain with S28N, A1003V"}, "B4": {"name": "2A-D1023Y: KDM4A mutation (protein)", "chain": "B1 chain with A1003V, D1023Y"}, "B5": {"name": "2A-E23K: KDM4A mutation (protein)", "chain": "B1 chain with E23K, A1003V"}, "B6": {"name": "Suv39H1: H3K9me3 methyltransferase, overexpressed by transfection (protein, UniProt O43463 1-412, looked up)", "Histone-lysine …": "MAENLKGCSVCCKSSWNQLQDLCRLAKLSCPALGISKRNLYDFEVEYLCDYKKIREQEYYLVKWRGYPDSESTWEPRQNLKCVRILKQFHKDLERELLRRHHRSKTPRHLDPSLANYLVQKAKQRRALRRWEQELNAKRSHLGRITVENEVDLDGPPRAFVYINEYRVGEGITLNQVAVGCECQDCLWAPTGGCCPGASLHKFAYNDQGQVRLRAGLPIYECNSRCRCGYDCPNRVVQKGIRYDLCIFRTDDGRGWGVRTLEKIRKNSFVMEYVGEIITSEEAERRGQIYDRQGATYLFDLDYVEDVYTVDAAYYGNISHFVNHSCDPNLQVYNVFIDNLDERLPRIAFFATRTIRAGEELTFDYNMQVDPVDMESTRMDSNFGLAGLPGSPKKRVRIECKCGTESCRKYLF", "modifications": "Halo tag", "notes": "H3K9me3 methyltransferase, overexpressed by transfection"}}, "key": {"HEK 293T cells": {"tested_on": "HEK 293T cells", "test": "Monitored cell proliferation assay (xCELLigence growth curves, doubling time)", "assay_type": "cell-based, human", "description": "Seventy two hours post transfection 1×10^4 HEK 293T cells were seeded per well of a 96 well plate, and then treated after 24h. Cell proliferation was monitored with an xCELLigence system (Roche) (Vistejnova et al., 2009)."}, "KDM4A": {"tested_on": "KDM4A", "test": "KDM4A protein levels by western blot", "assay_type": "cell-based, human", "conditions": "293T cells, fractionated in presence of NEM", "description": "Western blot analyses were performed according to (Black et al., 2010).\nWestern blots were performed as in (Black et al., 2010). Briefly, adherent cells were either scraped directly into PBS, or washed with PBS, trypsinized and collected by centrifuging at 2,000 RPM for 5 minutes. For preparation of whole-cell lysates, cell pellets were washed once in ice-cold PBS and resuspended in RIPA lysis buffer [50 mM Tris pH 7.4, 150 mM NaCl, 0.25% Sodium Deoxycholate, 1% NP40, 1 mM EDTA, 10% Glycerol] supplemented with complete protease inhibitor and PhosSTOP™ phosphatase inhibitor cocktails (Roche). Cells were lysed on ice for 15 minutes and immediately frozen at −80° C. for 10 min. Lysates were subsequently sonicated at 70% amplitude for 15 minutes in a QSonica Q800R™ and cleared of cell debris by centrifuging at 12,000 RPM for 15 minutes, before being analyzed by western blotting. For HIF1α expression, adherent cells were washed twice with ice-cold PBS and scraped directly in warmed 1× Laemmli buffer. Samples were sonicated at 70% amplitude for 15 minutes and boiled immediately prior to western blotting."}, "[1]": {"tested_on": "1q12h copy gain in RPE cells", "test": "FISH for site-specific copy gain", "assay_type": "cell-based, human", "conditions": "for hypoxia-dependent copy gain of 1q12h / hypoxia-induced 1q12h copy number gains / KDM4A-dependent 1q12h copy gain upon co-expression: RPE cells; for hypoxia-dependent copy gain of 1q12h: 1% O2 24 hours, JIB-04 62.5 nM or 2 mM succinate pre-treatment, or overexpression; for hypoxia-induced 1q12h copy number gains: 4% oxygen, transfection or 2 mM succinate for 24 hours; for KDM4A-dependent 1q12h copy gain upon co-expression: transient transfection 24 hours", "description": "FISH was performed as described in (Manning et al., 2010). Probes for 1q12h, 1q telomere, and chromosome 2, 6, 8, and X alpha satellite were purchased from Rainbow Scientific. Probes for 1q12 (RP11-80L2), Xq13.2 (RP11-451A22), Xq13.1 (RP11-177A4) were purchased as BAC clones from Children's Hospital Oakland Research Institute (CHORI BacPac) FISH verified clone repository. Oligonucleotide probes for 1q21.2 (BCL9) and 1q23.3 were purchased from Agilent (SureFISH). BACS were prepared utilizing PureLink HiPure Plasmid Filter Maxiprep kit (Life Technologies) using the recommended modified wash buffer. Probes were nick translated (Abbot Molecular Kit) in the presence of fluorescently labeled dTTP (Enzo Life Science). Images of multiple planes of fields of nuclei were acquired on an Olympus IX81 Spinning Disk Microscope and analyzed using Slidebook 5.0 software. We used a conservative scoring metric for copy gain. Any foci that were touching were scored as a single foci to prevent increased numbers due to normally replicated foci. For RPE cells, copy gain was scored as any cell with 3 or more distinct foci. For 293T cells, copy gain was scored for any cell with 5 or more distinct foci. For RPE cells each experiment includes at least one replicate from the two different polyclonal stable cell preparations. At least 100 cells for each replicate were scored for all experiments except analysis of single cell clones.\nCells were plated onto culture dishes and allowed to adhere for 20-24 hrs in normoxia (5% CO2, 21% O2, and 74% N2). For hypoxic treatment, cells were maintained in a HERA Cell 150™ incubator (Thermo Scientific) flushed with 5% CO2, 1% O2 or 4% O2, and balanced with N2 for the duration of the experiment. Incubator calibrations were carried out by Bianchi Associates Calibrations/Verifications.\nTo release, cells were washed twice with culture medium pre-conditioned in normoxia or hypoxia, and supplied with fresh pre-conditioned media. For JIB-04 treatment, normoxic cells were pre-treated with 62.5 nM JIB-04 (Xcessbio) for 24 hrs, then treated again with JIB-04 and either transferred to 1% O2 or maintained in normoxia for an additional 24 hrs. Succinate was administered at a final concentration of 2 mM and cells were either maintained in normoxia for 72 hrs or maintained in normoxia for 48 hrs prior to being transferred to 1% O2 for 24 hrs.\nFISH was performed as described in (Black et al., 2013; Manning et al., 2010). Probes for 1q12h, 1q telomere, chromosome 8 centromere (alpha satellite), and X centromere (alpha satellite) were purchased from Rainbow Scientific. Probes for Xq13.1 (RP11-177A4), Zebrafish BCL9 (CH73-15J19) and Zebrafish IGBP1 (CH73-223D24) were purchased as BAC clones from Children's Hospital Oakland Research Institute (CHORI BacPac) clone repository. Probes for 1q21.2 (BCL9) and 1q23.3 were purchased from Agilent (SureFISH).\nFISH was performed as described in (Black et al., 2013; Manning et al., 2010). Probes for 1q12h, 1q telomere, chromosome 8 centromere (alpha satellite), and X centromere (alpha satellite) were purchased from Rainbow Scientific. Probes for Xq13.1 (RP11-177A4), Zebrafish BCL9 (CH73-15J19) and Zebrafish IGBP1 (CH73-223D24) were purchased as BAC clones from Children's Hospital Oakland Research Institute (CHORI BacPac) clone repository. Probes for 1q21.2 (BCL9) and 1q23.3 were purchased from Agilent (SureFISH). BACS were prepared utilizing PureLink HiPure™ Plasmid Filter Maxiprep kit (Life Technologies) using the recommended modified wash buffer. Probes were nick translated (Abbot Molecular Kit) in the presence of fluorescently labeled dTTP (Enzo Life Science). Images of multiple planes of fields of nuclei were acquired on an Olympus IX81 T Spinning Disk Microscope and analyzed using Slidebook™ 5.0 software. A conservative scoring metric was used for copy gain. Any foci that were touching were scored as a single copy to prevent increased numbers due to normally replicated foci."}, "H3K9me3": {"tested_on": "H3K9me3", "test": "H3K9 demethylase activity of KDM4 variants in transfected cells", "assay_type": "cell-based", "parameters": "key: + indicates active; − indicates inactive; +/− indicates partial acitivty", "conditions": "KDM4A mutations"}, "H3K36me3": {"tested_on": "H3K36me3", "test": "H3K36 demethylase activity of KDM4A variants in transfected cells (immunofluorescence)", "assay_type": "cell-based", "parameters": "key: + indicates active; − indicates inactive; +/− indicates partial acitivty", "conditions": "KDM4A mutations"}}, "note": "Where a chain is given by its changes, count along the chain named. Numbers in names are those of the source."}
{"molecule": "C[C@@H]1C[C@@H]([C@H](O)CC2CC(=O)NC(=O)C2)C(=O)[C@@H](C)C1", "note": "[Cycloheximide]", "values": [{"measurement": "cell growth vs DMSO, KDM4A shRNA cells", "setting": "HEK 293T cells; HEK293T KDM4A shRNA, 30 nM", "result": "slow growth"}, {"measurement": "cell growth vs DMSO, control vector cells", "setting": "HEK 293T cells; HEK293T control vector, 30 nM", "result": "do not slow growth"}]}
{"molecule": "CCN1C(=O)C=CC1=O", "note": "[NEM]", "values": [{"measurement": "hypoxia-induced changes in KDM4A levels and/or localization", "setting": "KDM4A; 1% O2 6h", "result": "reduced"}, {"measurement": "KDM4A chromatin association", "setting": "KDM4A", "result": "alters the chromatin association"}]}
{"molecule": "CCCS(=O)(=O)Nc1ccc(F)c(C(=O)c2c[nH]c3ncc(Cl)cc23)c1F", "note": "[PLX-4720]", "values": [{"measurement": "drug sensitivity of KDM4A shRNA cells vs control vector (growth curves, doubling time)", "setting": "HEK 293T cells; HEK293T, PLX-4720", "result": "more sensitive"}]}
{"molecule": "O=C1NC(=NCc2cccs2)S/C1=C\\c1ccc2ncccc2c1", "note": "[R03306, reference compound]", "values": [{"measurement": "1q12h copy number in KDM4A overexpressing cells upon arrest", "setting": "[1]; stable GFP-KDM4A RPE cells, arrested 20 hours", "result": "failed to display increased copy number of 1q12h"}]}
{"molecule": "HP1γ: H3K9me3 binding protein, overexpressed by transfection", "values": [{"measurement": "hypoxia-dependent copy gain of 1q12h", "setting": "[1]", "result": "able to abrogate hypoxic induction of site-specific copy gain"}, {"measurement": "hypoxia-induced 1q12h copy number gains", "setting": "[1]", "result": "antagonized"}, {"measurement": "KDM4A-dependent 1q12h copy gain upon co-expression", "setting": "[1]", "result": "significantly reduced the number of KDM4A overexpressing cells with altered copy number of 1q12h"}]}
{"molecule": "B1", "values": [{"measurement": "H3k9 Demethylase Activity", "setting": "H3K9me3", "result": "+"}, {"measurement": "H3k36 Demethylase Activity", "setting": "H3K36me3", "result": "+"}]}
{"molecule": "B2", "values": [{"measurement": "H3k9 Demethylase Activity", "setting": "H3K9me3", "result": "+"}, {"measurement": "H3k36 Demethylase Activity", "setting": "H3K36me3", "result": "+"}]}
{"molecule": "B3", "values": [{"measurement": "H3k9 Demethylase Activity", "setting": "H3K9me3", "result": "+"}, {"measurement": "H3k36 Demethylase Activity", "setting": "H3K36me3", "result": "+"}]}
{"molecule": "B4", "values": [{"measurement": "H3k9 Demethylase Activity", "setting": "H3K9me3", "result": "+"}, {"measurement": "H3k36 Demethylase Activity", "setting": "H3K36me3", "result": "+"}]}
{"molecule": "B5", "values": [{"measurement": "H3k9 Demethylase Activity", "setting": "H3K9me3", "result": "+"}, {"measurement": "H3k36 Demethylase Activity", "setting": "H3K36me3", "result": "+"}]}
{"molecule": "B6", "values": [{"measurement": "hypoxia-dependent copy gain of 1q12h", "setting": "[1]", "result": "able to abrogate hypoxic induction of site-specific copy gain"}, {"measurement": "hypoxia-induced 1q12h copy number gains", "setting": "[1]", "result": "antagonized"}, {"measurement": "KDM4A-dependent 1q12h copy gain upon co-expression", "setting": "[1]", "result": "sufficient to abrogate KDM4A-dependent 1q12h copy gain"}]}
